Experimental findings from US20200225234A1 (ONCOTAG DIAGNOSTICS, published 2020) are described below.

The target of assay [1] is T1, MRS-AIMP3 co-purified protein (human, UniProt P56192 1-900; O43324 1-174, limits assumed).
T1 construct: Complex of MRS and AIMP3, co-expressed in E. coli BL21DE3 and co-purified; also called MRS+AIMP3 protein
T1 sequence 1: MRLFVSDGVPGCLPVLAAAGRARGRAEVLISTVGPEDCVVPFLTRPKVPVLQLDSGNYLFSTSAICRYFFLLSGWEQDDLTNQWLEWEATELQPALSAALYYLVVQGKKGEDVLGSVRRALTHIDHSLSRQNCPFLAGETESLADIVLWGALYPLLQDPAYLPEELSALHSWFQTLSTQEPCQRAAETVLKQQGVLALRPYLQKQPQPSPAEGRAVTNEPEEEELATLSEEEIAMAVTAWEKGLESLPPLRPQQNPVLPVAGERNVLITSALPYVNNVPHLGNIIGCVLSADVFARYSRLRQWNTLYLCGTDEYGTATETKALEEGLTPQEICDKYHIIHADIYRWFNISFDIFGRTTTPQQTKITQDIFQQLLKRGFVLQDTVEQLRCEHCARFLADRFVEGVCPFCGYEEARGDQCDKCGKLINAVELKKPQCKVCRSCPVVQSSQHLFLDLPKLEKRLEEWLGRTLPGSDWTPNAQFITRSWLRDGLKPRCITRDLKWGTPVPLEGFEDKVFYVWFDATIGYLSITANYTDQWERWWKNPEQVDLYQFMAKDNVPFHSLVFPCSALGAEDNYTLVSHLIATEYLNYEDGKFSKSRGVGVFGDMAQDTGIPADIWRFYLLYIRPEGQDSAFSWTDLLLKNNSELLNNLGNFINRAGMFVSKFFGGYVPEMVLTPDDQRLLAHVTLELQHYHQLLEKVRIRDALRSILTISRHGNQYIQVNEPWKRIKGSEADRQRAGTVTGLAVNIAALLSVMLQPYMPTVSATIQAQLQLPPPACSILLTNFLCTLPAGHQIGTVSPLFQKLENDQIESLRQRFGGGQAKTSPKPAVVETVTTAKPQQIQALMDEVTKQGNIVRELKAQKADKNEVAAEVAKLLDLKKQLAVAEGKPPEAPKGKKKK
T1 sequence 2: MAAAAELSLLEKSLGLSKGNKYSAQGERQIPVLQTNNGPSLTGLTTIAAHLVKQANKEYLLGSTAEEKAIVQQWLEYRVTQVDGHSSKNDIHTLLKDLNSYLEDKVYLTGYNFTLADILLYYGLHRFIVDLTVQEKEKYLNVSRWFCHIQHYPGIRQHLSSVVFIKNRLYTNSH
Description: SPR, MRS+AIMP3 protein coated on CM5 chip, antibody as analyte; MRS+AIMP3 co-purified protein on the CM5 chip, 8A12 antibody as analyte. The protocol:
(§1) To investigate MRS-specific affinity of the 8A12 antibody, a surface plasmon resonance (SPR) test was performed using MRS-AIMP3 co-purified protein (hereinafter, MRS+AIMP3 protein) and AIMP3 protein. MRS+AIMP3 or AIMP3 protein was coated on a CM5 chip and the 8A12 antibody was allowed to flow down, thereby measuring the degree of binding response of the protein. An analyte sample or buffer was injected at a flow rate of 30 μl/min for 8 minutes, and washed for 20 minutes.

Assay [2] deals with T2, MRS fragment peptide of aa 851-880 (human).
T2 peptide: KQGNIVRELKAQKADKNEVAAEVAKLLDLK
Description: ELISA, peptide coated at 300 ng/well, antibody at 10 nM. How it is done:
The 8A12 antibody as a primary antibody was diluted to 10 nM (1× PBST-Tween 0.05%), and HRP-conjugated Goat anti-mouse IgG (Thermo) as a secondary antibody was diluted at 1:10000 (1×PBST-Tween0.05%), and the absorbance was measured at 450 nm.
(ELISA stands for enzyme-linked immunosorbent assay.)

The next assay has as its target T3, His-AIMP1 (UniProt Q12904 1-312, limits assumed).
T3 construct: not shown: His tag
T3 sequence (looked up): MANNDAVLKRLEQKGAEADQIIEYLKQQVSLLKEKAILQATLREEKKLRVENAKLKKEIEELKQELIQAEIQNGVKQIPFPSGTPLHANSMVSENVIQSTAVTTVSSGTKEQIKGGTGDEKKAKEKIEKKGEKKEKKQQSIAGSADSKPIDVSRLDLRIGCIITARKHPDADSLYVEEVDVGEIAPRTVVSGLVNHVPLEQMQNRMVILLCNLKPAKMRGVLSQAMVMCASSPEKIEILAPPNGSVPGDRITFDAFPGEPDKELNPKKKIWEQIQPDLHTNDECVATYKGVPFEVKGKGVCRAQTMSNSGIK
Description: ELISA, coated His-AIMP1, absorbance at 450 nm. How it is done:
(§2) On a 96-well plate (Corning 3690 flat bottom, 96-well half-area plates), MRS proteins (His-MRS, MRS full) and other ARS proteins (DX2 tag free, 34S-DX2, 34S-AIMP2, His-CRS, His-AIMP1, His-GRS, His-WRS, His-KRS) were each coated at a concentration of 1 μg/ml. 8A12 antibody was added at a concentration of 500 ng/ml to the 96-well plate coated with coated with each of the ARS proteins, followed by incubation for 1 hour. Thereafter, HRP-conjugated anti-mouse IgG secondary antibody was added, followed by incubation for 1 hour, and the absorbance at 450 nm was measured by ELISA. As a substrate, 3,3′,5,5′-tetramethylbenzidine (TMB) was used.

Another assay concerns the target T4, 34S-AIMP2 (UniProt Q13155 1-320).
T4 construct: The meaning of 34S is unknown
T4 sequence (looked up): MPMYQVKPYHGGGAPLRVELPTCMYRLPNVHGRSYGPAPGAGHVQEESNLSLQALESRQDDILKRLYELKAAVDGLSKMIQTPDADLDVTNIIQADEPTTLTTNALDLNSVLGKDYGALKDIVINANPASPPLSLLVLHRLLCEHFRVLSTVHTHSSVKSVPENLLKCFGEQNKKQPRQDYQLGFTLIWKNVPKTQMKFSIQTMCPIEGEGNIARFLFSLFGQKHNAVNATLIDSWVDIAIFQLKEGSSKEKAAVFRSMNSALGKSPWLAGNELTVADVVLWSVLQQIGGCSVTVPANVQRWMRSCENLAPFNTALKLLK
Description: ELISA, coated 34S-AIMP2, absorbance at 450 nm. How it is done: as §2

The target of a further assay is T5, His-WRS (UniProt P23381 1-471, limits assumed).
T5 construct: not shown: His tag
T5 sequence (looked up): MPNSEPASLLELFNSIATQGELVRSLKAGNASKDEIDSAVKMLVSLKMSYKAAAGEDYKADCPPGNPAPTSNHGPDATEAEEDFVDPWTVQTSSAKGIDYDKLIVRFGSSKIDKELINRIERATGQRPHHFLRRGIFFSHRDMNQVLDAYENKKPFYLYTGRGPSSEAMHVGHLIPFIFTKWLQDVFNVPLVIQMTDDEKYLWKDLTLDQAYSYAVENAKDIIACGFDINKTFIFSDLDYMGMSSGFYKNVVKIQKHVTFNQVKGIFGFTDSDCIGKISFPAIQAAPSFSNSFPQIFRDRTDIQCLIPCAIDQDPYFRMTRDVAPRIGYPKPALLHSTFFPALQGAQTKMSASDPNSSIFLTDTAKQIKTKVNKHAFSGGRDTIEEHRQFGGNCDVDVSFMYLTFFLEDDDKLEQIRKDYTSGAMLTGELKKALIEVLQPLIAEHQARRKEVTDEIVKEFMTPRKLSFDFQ
In words: ELISA, coated His-WRS, absorbance at 450 nm. How it is done: as §2

A further assay deals with T6, His-KRS (UniProt Q15046 1-597).
T6 construct: not shown: His tag
In words: ELISA, coated His-KRS, absorbance at 450 nm. The protocol: as §2

Assay [3] addresses T7, aminoacyl-tRNA synthetase complex-interacting multifunctional protein 3 (AIMP3) (Homo sapiens (Human), UniProt O43324 1-174, limits assumed).
T7 construct: The construct of the AIMP3-alone protein is not described; also called AIMP3 protein
T7 sequence: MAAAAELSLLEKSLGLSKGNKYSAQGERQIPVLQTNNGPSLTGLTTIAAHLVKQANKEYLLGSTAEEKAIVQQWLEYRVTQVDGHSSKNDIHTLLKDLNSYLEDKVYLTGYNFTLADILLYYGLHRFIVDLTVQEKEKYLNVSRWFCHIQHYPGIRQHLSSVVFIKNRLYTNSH
Description: SPR, AIMP3 protein on a CM5 chip, 8A12 antibody as analyte at 0.20 to 200 nM. The protocol:
as §1

For assay [4], the target named is T1, MRS-AIMP3 co-purified protein. In words: SPR, MRS+AIMP3 protein on a CM5 chip, 8A12 antibody as analyte at 0.39 to 200 nM. How it is done:
as §1
In general terms: In SPR one partner is held on a chip, and binding of the other changes the refractive index at the surface.

The target in the next assay is T8, His-GRS (UniProt P41250 55-739).
T8 construct: not shown: His tag
T8 sequence (looked up): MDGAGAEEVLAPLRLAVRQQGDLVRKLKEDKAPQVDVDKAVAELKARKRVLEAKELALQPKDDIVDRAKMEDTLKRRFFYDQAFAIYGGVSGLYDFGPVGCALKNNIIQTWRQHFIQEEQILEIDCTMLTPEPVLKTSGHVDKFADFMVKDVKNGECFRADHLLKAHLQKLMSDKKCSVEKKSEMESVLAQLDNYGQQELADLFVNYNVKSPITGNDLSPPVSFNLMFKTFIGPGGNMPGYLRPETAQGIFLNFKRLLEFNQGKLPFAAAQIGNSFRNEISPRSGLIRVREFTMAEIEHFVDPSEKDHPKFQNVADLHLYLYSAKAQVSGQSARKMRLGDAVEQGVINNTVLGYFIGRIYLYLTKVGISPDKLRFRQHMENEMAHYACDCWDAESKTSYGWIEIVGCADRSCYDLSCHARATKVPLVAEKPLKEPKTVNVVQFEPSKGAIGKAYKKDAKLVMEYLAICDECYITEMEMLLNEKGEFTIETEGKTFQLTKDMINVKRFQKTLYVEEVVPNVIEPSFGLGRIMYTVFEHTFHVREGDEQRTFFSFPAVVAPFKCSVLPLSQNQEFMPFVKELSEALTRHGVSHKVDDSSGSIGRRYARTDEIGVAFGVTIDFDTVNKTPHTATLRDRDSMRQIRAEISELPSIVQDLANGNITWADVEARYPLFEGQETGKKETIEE
Description: ELISA, coated His-GRS, absorbance at 450 nm. The protocol: as §2

In a further assay the target is T9, His-CRS (UniProt P49589 1-748).
T9 construct: not shown: His tag
T9 sequence (looked up): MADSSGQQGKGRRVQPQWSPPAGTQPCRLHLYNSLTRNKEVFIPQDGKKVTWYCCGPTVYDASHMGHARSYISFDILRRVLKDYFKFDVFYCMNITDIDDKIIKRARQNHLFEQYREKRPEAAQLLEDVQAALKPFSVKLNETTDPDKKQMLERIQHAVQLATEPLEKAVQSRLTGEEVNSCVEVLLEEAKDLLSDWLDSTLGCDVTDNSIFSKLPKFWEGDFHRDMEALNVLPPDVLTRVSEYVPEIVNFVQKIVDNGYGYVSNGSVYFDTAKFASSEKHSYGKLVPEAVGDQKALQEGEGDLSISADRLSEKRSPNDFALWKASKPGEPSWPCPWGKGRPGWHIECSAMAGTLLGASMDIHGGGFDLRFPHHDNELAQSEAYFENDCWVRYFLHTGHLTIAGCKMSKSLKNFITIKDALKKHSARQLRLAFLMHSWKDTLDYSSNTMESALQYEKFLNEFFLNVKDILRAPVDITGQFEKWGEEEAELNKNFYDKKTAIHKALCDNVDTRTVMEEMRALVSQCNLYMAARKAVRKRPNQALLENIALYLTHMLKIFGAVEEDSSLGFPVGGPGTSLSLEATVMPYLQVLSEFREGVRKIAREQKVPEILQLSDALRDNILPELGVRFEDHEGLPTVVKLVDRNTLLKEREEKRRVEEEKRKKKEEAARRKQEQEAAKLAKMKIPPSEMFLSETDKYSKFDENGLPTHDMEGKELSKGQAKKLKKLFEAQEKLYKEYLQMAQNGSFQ
In words: ELISA, coated His-CRS, absorbance at 450 nm. How it is done:
as §2

T6 sequence (Q15046 whole entry): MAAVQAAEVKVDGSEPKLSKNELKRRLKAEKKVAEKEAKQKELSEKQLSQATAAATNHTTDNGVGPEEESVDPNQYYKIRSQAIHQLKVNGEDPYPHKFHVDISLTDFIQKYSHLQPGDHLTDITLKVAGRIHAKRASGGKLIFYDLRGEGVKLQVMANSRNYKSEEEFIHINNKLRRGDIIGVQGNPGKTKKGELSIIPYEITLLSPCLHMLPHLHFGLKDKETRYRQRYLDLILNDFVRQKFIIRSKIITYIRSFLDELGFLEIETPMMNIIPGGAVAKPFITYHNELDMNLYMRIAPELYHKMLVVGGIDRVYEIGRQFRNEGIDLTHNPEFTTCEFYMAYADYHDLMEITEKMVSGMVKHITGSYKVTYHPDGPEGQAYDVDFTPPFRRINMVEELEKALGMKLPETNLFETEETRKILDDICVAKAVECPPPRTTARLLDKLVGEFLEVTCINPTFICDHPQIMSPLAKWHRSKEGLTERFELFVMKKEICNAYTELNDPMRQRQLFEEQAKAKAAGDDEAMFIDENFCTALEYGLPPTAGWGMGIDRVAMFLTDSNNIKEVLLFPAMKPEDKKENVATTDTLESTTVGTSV

B1: 8A12 antibody (whole 8A12 IgG antibody) (antibody, V domains shown)
VH: DVKLQESGPGLVKPSQSLSLTCTVTGYSITSEYAWTWIRQFPGNKLEWMGYINYNGNTNLNPSLKSRISIIRDTSKNQFFLQLNSVTTEDTATYYCARSLWPRGWFAYWGQGTLVTVSA
VL: DIQMTQSPSSMYASLGERVTITCKASQDINSYLSWFQQKPGKSPKTLMYRANRLVDGVPSRFSGSGSGQDYSLTISSLEYEDMGIYYCLQYDEFPRTFGGGTKLEIKA
notes: Mouse monoclonal antibody from hybridoma 8A12; It was also made recombinantly in 293F cells with mouse IgG2a heavy and mouse kappa light chain vectors; also called MRS antibody; 8A12 clone expression antibody
For orientation: Kd means a measure of binding affinity in units of concentration. Read a high Kd as lower affinity. As usually defined, the koff is the rate constant with which the complex falls apart. Broadly, the kon is the rate constant with which the complex forms. Higher therefore signals faster complex formation. In [1], B1 registered a Kd of 1.56 nM. Moreover, the binding result was “binds” in assay [2]; “no binding” with His-AIMP1; “no binding” with 34S-AIMP2; “no binding” with His-WRS; “no binding” in the assay with His-KRS; “no binding (tested: 200 nM)” in assay [3]. Further, the binding result with His-GRS and in the assay with His-CRS was “no binding” in each case. Besides, in [4], the koff was 0.000213 s⁻¹. The molecule also displayed a kon in assay [4] of 137000 M⁻¹ s⁻¹.
